Assay: soluble on expression in E. coli; label from the status in PepcDB or PDB records

Soluble on expression in E. coli, not soluble:
MGSDKIHHHHHHMRIRPDRNRGRSAGINPSGRFEPVSRHVFDDGWSSLEELPPFKTEVQVEKPRTIITRNESPDISFDRSINPYRGCEHGCVYCFARPTHAFMGLSPGLDFETKLFAKPDAARLLDKELSKEGYQPRTIAIGTNTDPYQPIEKQYRIMREILEVLEARGHPVGIVTKSALVTRDIDILSRMAERGLAKVALSVTTLDRMLARTMEPRASTPTKRLEAIRQLSDAGIPTSVMVAPIIPGLTDQEMERILDSAYAAGAREAGYVVLRLPLEVSPIFKDWLLRHYPDRYRHVMSLIRSMRDGKDYDSEWGKRMKGAGPYAWQIGRRFEITAKRLGLNIERRTLRTDQFVAAGKDQEQLMLL
MGSDKIHHHHHHMRISANFDGGNIETISLANPDDIQLAIRPDAGGEFYQWFNFRFEATIGKTYTLNILNAGGASYLKGWEDYQAVASYDRQTWFRLPTEYKDGKLSISVELDCEAIQIAYFTPYSYERHLDLISAVQLHPLVSTEHLGLTLDGRDMTLVKVGDDDPSKKSIWITARQHPGETMAEWLVEGLLNQLLDNDCPTSKALLDKANFYIVPNMNPDGSVRGHLRTNAVGANLNREWQTPSLERSPEVYYVVNKMHETGVDLFYDVHGDEGLPYVFLAGCEGIPNYSDKLASLQQDFVAALSLASADFQTEFGYDKDEPGKANLTVACNWVANTFKCLSNTLEMPFKDNANLADPFQGWSPERSVYFGEASLIAMRAVIDKIGQ
MGSDKIHHHHHHMRKDGHMQLQTIKVQGFKSIRELEFSLRPLNILIGANGSGKSNILGVFAFLRAMVERHLQMYVARAGGADRILHFGQKNTDSLQIELWFTKKNRRARGNIIANGYRCALVPAVGDRFVFAEERAFFHDRRYEKPVETLLGSGHEESLLPASYGRGIPADVFEAMQSWIVYHFHDTSDSARVKQTGDIDDNYWLRQDASNLTAYLYYIQQQAPDHYRNIVDVIRMVAPFFDDFVLRPSPFNPNKIKLEWRERGSDTYFDAYALSDGTLRFICLATLLLQPARKFPAIILLDEPEMGLHPYAIHVLAELLHSAATQTQVIVATQSVTLVNQFEPEDIVVVERQDGQPVCRRLTMEETETWLDGYGLGDLWEKNILGGRPLP
MGSDKIHHHHHHMRKSRDANPFKAMPNILYPDELMDKAYNRSEKIAGELRTTTRGLSTPKSKIIEDNKIRTTASVISDNLLKIVEKTPSIDNLDPFYREILEIMVGSDEFKKSLAAVQWASEIVKKLGTQYSRKVKKAPSPQATSIVRKEFIGRVSSVLKQIYPNMAFLGVARNKLKNIPTVKNLPSVVIAGYPNVGKSTLLRTLTDAEPEVNSYPFTTKGLNIGYTEEGIQIIDTPGVLDRPIYERNDIELHAVVAINYLSDMILFVIDPTEFCGFTMEEQFNLLQEIRKTFNVPILVALTKMDVDEIEGLDKLEEDLGEYEVLKVSSFKKEGIADLRERLLDILDEQGLMGLLEE
MGSDKIHHHHHHMRLKELLPNFLIVHQEVPEDPIAFKSTDKRENENKEITIPELIDTKVPELADGATDTLYGLLVNGHLQTAYGSFRHFDNIYKVQYKRMIIKYPHGGEGTVDFAVNGRSTKRRKVEKEYVPTSQPVFNGNLKRRYSYYSPDDPKLNSDDAKPMLIILHGLTGGSRESYVRAIVHEITTKYDFEACVFNARGCCYSAITTPLLYNGGWTNDIRYCVNDLRKRFPNRKFYMMGFSLGASIMTNYLGEESDRTKIECAISVSNPFDLYNSAYFINSTPMGSRFYSPALGHNLLRMVRNHLSTLEENPDFKDVIEKHLKKIRTVRQFDNLLTGPMFGYKNAEEYYKNASSYKRIPGIRTPFIALHAQDDPIVGGDLPIDQIKSNPYTLLLETSTGGHVGWFKDRSGRRWYAEPLCRFLKIFHDEITVKGLKPDLENVQLPDPNCEPIATTFRAN
MGSDKIHHHHHHMRLPPLNALRAFEAAARHNGYIAAAEELCVTRGAVSRHIKLLEDHLGVTLFHRNHRGVELTAAGRQLLPVLTETFARIAREAEQISAMTRDVRIICPPALSIRWLFPRLEEFQAAHPDIRVRLTTEFYGAKGFDDTEHDLGVSVEHVSGRGAGIASMPLFPMVLSPACSPALLRQRPLSAPADLARMTLLHESPQRRDWAHWLSSFGVRGVDAGSGPTFPNLDMAARAATMGAGVVMADLALCQEELRAGTLVLPFPEMTCTTPQGGYVLLGARARWDEPHLRAFRDWAASSSADLVACMGA
MGSDKIHHHHHHMRLTTKGRFAVTAMIDLALREHSGPVALAAISSRQQISLSYLEQLFGKLRRHELVESTRGPGGGYSLGRKAEEITVADIIVAVDEPIDATGCGGKENCMGEDSGRCMTHDLWASLNTKMIEFLDSISLRKLVDDQLAKGVSIEEAPVKRAISSQPVVKPIKITAPNSVFALGSSFSK
MGSDKIHHHHHHMRLYTRTGDKGKTSVIGGRLAKDDTRVVAYGTTDELNSFVGLAITQLDENTFADIRGELFKIQHELFDCGGDLAMLKVKEDRPYKAKQEIVDFLEQRIDAYIKEAPELERFILPGGSEAAASLHVCRTIARRAERYVVRLQQEGEINPIVLKYLNRLSDYFFAVARVVNSRLQVPDVEYERSAIVFREGKRKEDKK
MGSDKIHHHHHHMRNLISETKSLYKLIDFKDVQIFGDAANYTCILFLKIYKNDVFSYIFPKSTDTFTIQSVSNVDTFQEYKLPLPKPDHPWILSENKVSELIRKLSRKGIPLEIISKNIFQSLTTSADGIYFVQVESETRDTAKIRNIKNNLEFAVEKTILRKLLKGKDIRRCSVDWKGSYVVYPYLVKDDKASLITLSEIKDRYPLAYEYFKHYELQLKTREDNKLKDDENWHQYIYRKNLEKFEQKKIVTQVLASKNTFAIDLNGEFYFVGGDNAGGYGIVLNDNNQNMYYFVLALLNSNVLEFYLKNISTPFRGGYFSYGKRFIDKLPLLIPKDSRFDSVSSLSKEQMNISKKMRNFPNTDERDLLEREYDKRCQELNQMIYEIYGLNKLEITLLDDRLCQ
MGSDKIHHHHHHMRPLIFAYANAAASIAADSWNLVMGEDNPFCRHEYLLSLEQSLSACDATGWQACHLCVFDASGMGLTQEQNTDGIVSTRDAVHFIDLPLLAVMPLYQKSHSYGEYVFDWAWAQAYEHHGLAYYPKLLNAIPFTPVLGRRIGLSPRLSADEAQQLSALVFTCLNRQLMDAHASISSWHCLFVSPSQQSLFEPPLSVKQQTLQHLPHNPSLRRLSTQFHWYNRGYTSFEAFLAALNSRKRKNIVKERAQLQTHGLRFEFVAGNVITSQQWQRFIECYQLTYLKRSGHRGYLTPVFFQMIAERLAEQIVLLVVSDATGEMIAGALYFTGRNELGQRCLFGRYWGSTLELEGLHFEACYYQGIEYCIAQDIEVFDAGAQGEHKVLRGFEPVAIYSYHNIAHPEFKLAIAHFTEEEAVQMEVYMQQMREVLPYKKAP
MGSDKIHHHHHHMRSIVQNKVEECLEILKWDKTKWIDFWRELRRKFGPIVPNYERKLELNDEKIEKILREIERRELDRFKWDWLDVSRNKKIECAESLSEREDFLDLKREDFSVFLMSLLGLSDWVVVDGEKEKIVVMDVFSLWRKGLLRELSLATLHAVIEFRKGKEIGNYGGKKEYFDSLLKEIEKILKRGKEALGDLCEFLRNHVSYYDWVGFYFVEDGKLKLGPFVGEPTEHVEIPFGVGICGQAAEREETFVVQDVSKETNYLSCSPKTKAEIVVPIFKDGKIIGELDIDSYSPSPFSEEDRAFLEKVCELVSKVV
